This note sets out measurements from IntAct's records for PubMed 17828277.

Sequences and labels used below:
B1: Microtubule-associated protein RP/EB family member 1 (Homo sapiens), Q15691 (parent)
chain: MAVNVYSTSVTSDNLSRHDMLAWINESLQLNLTKIEQLCSGAAYCQFMDMLFPGSIALKKVKFQAKLEHEYIQNFKILQAGFKRMGVDKIIPVDKLVKGKFQDNFEFVQWFKKFFDANYDGKDYDPVAARQGQETAVAPSLVAPALNKPKKPLTSSSAAPQRPISTQRTAAAPKAGPGVVRKNPGVGNGDDEAAELMQQVNVLKLTVEDLEKERDFYFGKLRNIELICQENEGENDPVLQRIVDILYATDEGFVIPDEGGPQEEQEEY
B2: CAP-Gly domain-containing linker protein 1 (Homo sapiens), P30622-1 (parent)
chain: MSMLKPSGLKAPTKILKPGSTALKTPTAVVAPVEKTISSEKASSTPSSETQEEFVDDFRVGERVWVNGNKPGFIQFLGETQFAPGQWAGIVLDEPIGKNDGSVAGVRYFQCEPLKGIFTRPSKLTRKVQAEDEANGLQTTPASRATSPLCTSTASMVSSSPSTPSNIPQKPSQPAAKEPSATPPISNLTKTASESISNLSEAGSIKKGERELKIGDRVLVGGTKAGVVRFLGETDFAKGEWCGVELDEPLGKNDGAVAGTRYFQCQPKYGLFAPVHKVTKIGFPSTTPAKAKANAVRRVMATTSASLKRSPSASSLSSMSSVASSVSSRPSRTGLLTETSSRYARKISGTTALQEALKEKQQHIEQLLAERDLERAEVAKATSHVGEIEQELALARDGHDQHVLELEAKMDQLRTMVEAADREKVELLNQLEEEKRKVEDLQFRVEEESITKGDLETQTKLEHARIKELEQSLLFEKTKADKLQRELEDTRVATVSEKSRIMELEKDLALRVQEVAELRRRLESNKPAGDVDMSLSLLQEISSLQEKLEVTRTDHQREITSLKEHFGAREETHQKEIKALYTATEKLSKENESLKSKLEHANKENSDVIALWKSKLETAIASHQQAMEELKVSFSKGLGTETAEFAELKTQIEKMRLDYQHEIENLQNQQDSERAAHAKEMEALRAKLMKVIKEKENSLEAIRSKLDKAEDQHLVEMEDTLNKLQEAEIKVKELEVLQAKCNEQTKVIDNFTSQLKATEEKLLDLDALRKASSEGKSEMKKLRQQLEAAEKQIKHLEIEKNAESSKASSITRELQGRELKLTNLQENLSEVSQVKETLEKELQILKEKFAEASEEAVSVQRSMQETVNKLHQKEEQFNMLSSDLEKLRENLADMEAKFREKDEREEQLIKAKEKLENDIAEIMKMSGDNSSQLTKMNDELRLKERDVEELQLKLTKANENASFLQKSIEDMTVKAEQSQQEAAKKHEEEKKELERKLSDLEKKMETSHNQCQELKARYERATSETKTKHEEILQNLQKTLLDTEDKLKGAREENSGLLQELEELRKQADKAKAAQTAEDAMQIMEQMTKEKTETLASLEDTKQTNAKLQNELDTLKENNLKNVEELNKSKELLTVENQKMEEFRKEIETLKQAAAQKSQQLSALQEENVKLAEELGRSRDEVTSHQKLEEERSVLNNQLLEMKKRESKFIKDADEEKASLQKSISITSALLTEKDAELEKLRNEVTVLRGENASAKSLHSVVQTLESDKVKLELKVKNLELQLKENKRQLSSSSGNTDTQADEDERAQESQIDFLNSVIVDLQRKNQDLKMKVEMMSEAALNGNGDDLNNYDSDDQEKQSKKKPRLFCDICDCFDLHDTEDCPTQAQMSEDPPHSTHHGSRGEERPYCEICEMFGHWATNCNDDETF

One test covers variants of B1. The settings on record: with dctn1_human DCTN1, Q14203.
Target sequence in this assay (Q14203 whole entry): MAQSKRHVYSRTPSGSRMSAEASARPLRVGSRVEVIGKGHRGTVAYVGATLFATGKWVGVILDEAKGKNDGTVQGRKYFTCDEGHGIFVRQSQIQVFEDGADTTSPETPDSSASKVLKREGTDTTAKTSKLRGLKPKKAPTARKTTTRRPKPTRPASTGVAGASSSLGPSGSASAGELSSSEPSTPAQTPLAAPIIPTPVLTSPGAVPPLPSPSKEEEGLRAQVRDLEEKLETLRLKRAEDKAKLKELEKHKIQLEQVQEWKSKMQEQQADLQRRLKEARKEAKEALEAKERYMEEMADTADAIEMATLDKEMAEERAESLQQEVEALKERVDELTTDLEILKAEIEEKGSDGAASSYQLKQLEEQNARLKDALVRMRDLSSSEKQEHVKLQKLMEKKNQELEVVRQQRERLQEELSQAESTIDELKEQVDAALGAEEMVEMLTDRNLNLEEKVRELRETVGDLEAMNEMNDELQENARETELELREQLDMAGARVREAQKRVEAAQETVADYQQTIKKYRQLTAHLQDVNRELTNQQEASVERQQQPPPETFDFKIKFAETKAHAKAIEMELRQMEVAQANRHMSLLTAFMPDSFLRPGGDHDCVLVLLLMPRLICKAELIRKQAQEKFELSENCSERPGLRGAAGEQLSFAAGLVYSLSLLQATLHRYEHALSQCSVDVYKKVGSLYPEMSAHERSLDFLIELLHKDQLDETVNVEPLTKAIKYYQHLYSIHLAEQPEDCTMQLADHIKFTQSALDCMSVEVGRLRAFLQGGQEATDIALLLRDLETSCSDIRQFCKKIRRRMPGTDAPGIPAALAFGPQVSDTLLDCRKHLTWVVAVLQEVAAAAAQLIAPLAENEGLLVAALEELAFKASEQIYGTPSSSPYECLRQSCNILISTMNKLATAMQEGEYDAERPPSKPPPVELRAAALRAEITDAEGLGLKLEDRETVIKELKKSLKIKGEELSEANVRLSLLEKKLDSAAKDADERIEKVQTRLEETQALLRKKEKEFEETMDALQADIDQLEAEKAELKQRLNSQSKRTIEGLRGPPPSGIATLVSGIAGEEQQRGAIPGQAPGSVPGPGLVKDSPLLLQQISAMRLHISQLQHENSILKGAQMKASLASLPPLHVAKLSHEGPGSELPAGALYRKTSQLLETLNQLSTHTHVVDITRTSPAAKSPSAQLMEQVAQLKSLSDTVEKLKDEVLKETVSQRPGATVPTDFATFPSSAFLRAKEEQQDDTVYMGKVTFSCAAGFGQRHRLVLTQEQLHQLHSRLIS
For the variant Y268G, the “effect of a mutation on the interaction” value is on record as “decreasing interaction strength”.
Take Y268I: the “effect of a mutation on the interaction” value is on record as “decreasing interaction strength”.

Another test covers variants of B2. The settings on record: with dctn1_human DCTN1, Q14203.
Target sequence in this assay (Q14203 whole entry): as above
As to I1410D, the “effect of a mutation on the interaction” value was “decreasing interaction strength”.
In the case of I1410H, the “effect of a mutation on the interaction” value is “decreasing interaction strength”.
